Results reported in paper PMC6538776, “The Bacterial DNA Binding Protein MatP Involved in Linking the Nucleoid Terminal Domain to the Divisome at Midcell Interacts with Lipid Membranes” (mBio, 2018).

T1: MatP (Escherichia coli, UniProt P0A8N0 1-150)
T1 sequence: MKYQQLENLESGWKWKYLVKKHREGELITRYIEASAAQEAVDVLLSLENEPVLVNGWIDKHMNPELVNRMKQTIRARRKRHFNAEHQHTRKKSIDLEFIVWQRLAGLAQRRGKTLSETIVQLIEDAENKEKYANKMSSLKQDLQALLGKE


Assays:
[1] = target: the molecule itself; test: AUC + other: light scattering; MatP alone in solution, working buffer (50 mM Tris-HCl, 300 mM KCl, 5 mM MgCl2, pH 7.5); details in the supplement to Fig. S7
[2] = target: T1, MatP; test: fluorescence anisotropy; 300 mM KCl, 5 mM MgCl2; Kd in MatP dimer units; 1 dimer per DNA; 50 mM Tris-HCl, 300 mM KCl, 5 mM MgCl2, pH 7.5; temperature not stated; matS-Fl 10 nM in anisotropy titrations; conditions: protein: recombinant; tags: untagged (N-terminal His6 removed by thrombin); chain copies: 2; label: 5'-fluorescein on sense strand

Binder	stoichiometry N [1]	Kd [2] [nM]
MatP (natural protein, Escherichia coli, UniProt P0A8N0 1-150, looked up, also called recombinant untagged MatP; not shown: His6, N-terminal, cleaved) MKYQQLENLESGWKWKYLVKKHREGELITRYIEASAAQEAVDVLLSLENEPVLVNGWIDKHMNPELVNRMKQTIRARRKRHFNAEHQHTRKKSIDLEFIVWQRLAGLAQRRGKTLSETIVQLIEDAENKEKYANKMSSLKQDLQALLGKE	2	
matS-Fl (matS19) (dsDNA) DNA 1: AAAGTGACACTGTCACCTT DNA 2: AAGGTGACAGTGTCACTTT		15 ± 2
